Source: patent US20220073650A1 (AFFIRIS, published 2022)
Each block holds one binder with its values, some of them ahead of it. No end group written: not given here.

Columns and labels:
[1] = target: T1, peptide p6773 (human, not fully specified (residue 18)); assay: peptide ELISA
T1 peptide: LPQPPPQAQPLLPQPQPC

[2] = target: T2, recombinant N-terminal Huntingtin fragment recHTT610 (human, UniProt P42858 1-610); assay: recHTT610 capture ELISA
T2 construct: range 1-610; Used as extract of transiently transfected HEK293 cells, captured by anti-V5 antibody on the plate or spiked into human serum; also called recombinant HTT610; recombinant Huntingtin; not shown: two C-terminal V5 tags
T2 sequence (P42858 1-610): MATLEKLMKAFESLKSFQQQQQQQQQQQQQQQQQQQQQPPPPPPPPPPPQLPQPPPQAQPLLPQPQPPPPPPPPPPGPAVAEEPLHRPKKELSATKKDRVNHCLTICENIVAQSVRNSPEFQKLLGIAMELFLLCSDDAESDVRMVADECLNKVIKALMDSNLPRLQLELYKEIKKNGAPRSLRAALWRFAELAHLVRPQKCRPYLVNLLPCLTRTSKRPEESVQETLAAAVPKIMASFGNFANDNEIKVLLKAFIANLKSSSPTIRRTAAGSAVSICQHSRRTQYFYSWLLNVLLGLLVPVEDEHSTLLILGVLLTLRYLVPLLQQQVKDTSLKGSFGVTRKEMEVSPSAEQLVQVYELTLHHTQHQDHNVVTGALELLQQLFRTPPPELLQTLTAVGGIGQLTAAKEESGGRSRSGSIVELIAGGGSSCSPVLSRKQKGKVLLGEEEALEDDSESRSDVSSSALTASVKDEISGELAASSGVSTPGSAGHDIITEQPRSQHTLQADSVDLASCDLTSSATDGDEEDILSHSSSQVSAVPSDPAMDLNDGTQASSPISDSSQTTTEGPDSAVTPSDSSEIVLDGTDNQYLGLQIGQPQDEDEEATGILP
Procedure: Binding of antibodies to N-terminal fragment HTT610 was determined by a standard protein capture ELISA procedure using Maxisorb™ ELISA plates (Thermo; CatNr. 439454), coated with 50 μl of a 1:5000 rabbit anti V5 mAB (Sigma, CatNr. V8137), blocking with blocking buffer (PBS, 1% BSA, 0.1% Tween 20), capturing of recombinant Huntingtin from HEK cell extracts (100 ng/μl total protein) followed by incubation with several dilutions of mouse anti HTT sera (1:100; 1:300 and 1:900) or with mAB2166 as reference (diluted 1:2000; Millipore, Cat Nr. MAB2166) for 1 hour at RT. ELISA incubations, washing and detection procedures were performed according to standard procedures.

[3] = target: T3, peptide p7562 (human, not fully specified (residue 1)); assay: peptide ELISA
T3 peptide: CDSSEIVLD

[4] = target: T4, peptide p7564 (human, not fully specified (residue 1)); assay: peptide ELISA
T4 construct: also called 'cleaved' peptide
T4 peptide: CPSDSSEIVLD

[5] = target: T5, peptide p7552 (human, not fully specified (residue 1)); assay: peptide ELISA
T5 peptide: CSSEIVLD

binding result [1]: binds
signal to noise ratio (reHTT610-specific signal: HEK ctrl extracts) [2]: ≥ 4
B1: monoclonal antibody PRR13 (antibody, V domains shown)
VH: EVQLQQSAPELVKPGASVKMSCKASGYSFTDFYMKWVKQSHGKGLEWIGDIDPKNGDTFYNQKFKGRATLTVDKSSSTAYMQLNSLTTEDSAVYYCATYYGYTMDYWGQGTSVTVSS
VL: QIVLTQSPAIMSASLGERVTMTCTASSSVTSSYLHWYQQKPGSSPKLWIYSTSNLASGVPARFSGSGSGTSYSLTISSMEAEDAATYYCHQYRRPPRTFGGGTKLEIKR
notes: Mouse IgG2a from hybridoma, immunogen p6773; also called mAB PRR13; PPR13

binding result [3]: binds
binding result [4]: binds
binding result [5]: binds
B2: monoclonal antibody M1D1 (antibody, V domains shown)
VH: EVQLVESGGGLVQPKGSLKLSCAASGFTFNTYAMNWVRQAPGKGLEWVARIRSKSNNYATYYADSVKDRFTISRDDSQSMLYLQMNNLKTEDTAMYYCVRHGEYGNPWFAYWGQGTLVTVSA
VL: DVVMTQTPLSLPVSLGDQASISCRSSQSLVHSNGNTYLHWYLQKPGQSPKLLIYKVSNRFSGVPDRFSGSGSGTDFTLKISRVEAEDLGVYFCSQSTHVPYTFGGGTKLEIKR
notes: Typed as mouse IgM; hybridoma, immunogen p7564; also called mAB M1D1
